According to publication PMC3799227:

Tests used:
[1] = test system: BaeR (Salmonella enterica serovar Typhimurium); test: EMSA
[2] = test system: BaeR-P (phosphorylated BaeR) (Salmonella enterica serovar Typhimurium); test: EMSA

Q: What does the source list for sodA promoter fragment A (wild type)?
A: binding [1]: 0.9 µM; binding [2]: 0.6 µM
